# Laboratory results taken from PMC5906006 (PLoS ONE, 2018).
# Bridge positions count the residues as written; N and C are the ends. Square brackets hold non-standard residues; d marks the D form. Peptide text beside a SMILES is read from it. * marks the point of attachment. X1 = O=C(O)CN1CCN(CC(=O)O)CCN([C@H](CCC(=O)*)C(=O)O)CC1; dPhe(4-NHCONH2) = NC(=O)Nc1ccc(C[C@@H](N)C(=O)O)cc1; Dihydroorotyl(S) = O=C1C[C@@H](C(=O)*)NC(=O)N1; Phe(4-Cl) = N[C@@H](Cc1ccc(Cl)cc1)C(=O)O; Phe(4-NH2) = Nc1ccc(C[C@H](N)C(=O)O)cc1
# What was measured:
# [1] = Biodistribution in HEK-hsst2 tumor-bearing mice; settings: female, Balb/c nude, mouse, in vivo, iv, total radioactivity
# [2] = target: T1, human sst2 receptors (Homo sapiens, UniProt P30874); assay: Saturation binding on HEK-hsst2 cells; settings: 2 hours at +4 °C
# T1 construct: expressed in transfected cells; host or cells: HEK-293 (HEK-hsst2), a gift from Prof; Schulz, University of Jena
# T1 sequence (P30874 whole entry): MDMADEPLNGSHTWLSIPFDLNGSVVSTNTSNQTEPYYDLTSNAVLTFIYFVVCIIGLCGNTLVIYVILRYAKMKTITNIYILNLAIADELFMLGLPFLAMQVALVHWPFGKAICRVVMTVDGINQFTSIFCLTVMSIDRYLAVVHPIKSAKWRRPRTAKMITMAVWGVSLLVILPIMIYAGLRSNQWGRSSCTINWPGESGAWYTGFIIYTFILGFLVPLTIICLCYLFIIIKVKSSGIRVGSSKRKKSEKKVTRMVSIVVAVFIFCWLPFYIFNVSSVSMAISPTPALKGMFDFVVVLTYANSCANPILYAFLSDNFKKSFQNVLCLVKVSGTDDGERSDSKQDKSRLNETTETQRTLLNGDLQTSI
# Method: The saturation binding experiments were performed with radioligand (^64/natCu-NODAGA-JR11 and ^64/natCu-DOTA-TATE) concentrations ranging from 0.5–75 nM and 0.5–90 nM, respectively, for 2 hours at +4 °C as described previously [24]. The Kd and Bmax values were calculated using GraphPad.
structure (smiles),measurement,setting,value
"C[C@@H](O)[C@H](NC(=O)[C@@H]1CSSC[C@H](NC(=O)[C@@H](Cc2ccccc2)NC(=O)CN2CCN(CC(=O)O)CCN(CC(=O)O)CCN(CC(=O)O)CC2)C(=O)N[C@@H](Cc2ccc(O)cc2)C(=O)N[C@H](Cc2c[nH]c3ccccc23)C(=O)N[C@@H](CCCCN)C(=O)N[C@@H]([C@@H](C)O)C(=O)N1)C(=O)O [^64Cu-DOTA-TATE, [^64Cu-DOTA, Tyr^3, Thr^8]octreotide, metal not drawn, reference compound]",tissue uptake at 1 h,"[1]; 10 pmol, Adrenal uptake",4.7 ± 1.5 %ID/g
same,tissue uptake at 24 h,"[1]; 10 pmol, Adrenal uptake",0.7 ± 0.3 %ID/g
same,tissue uptake at 1 h,"[1]; 10 pmol, Blood uptake",0.7 ± 0.2 %ID/g
same,tissue uptake at 4 h,"[1]; 10 pmol, Blood uptake",0.6 ± 0.1 %ID/g
same,tissue uptake at 24 h,"[1]; 10 pmol, Blood uptake",0.5 ± 0.05 %ID/g
same,tissue uptake at 1 h,"[1]; 10 pmol, Bone uptake",1.6 ± 0.5 %ID/g
same,tissue uptake at 24 h,"[1]; 10 pmol, Bone uptake",0.8 ± 0.1 %ID/g
same,tissue uptake at 1 h,"[1]; 10 pmol, Heart uptake",1.1 ± 0.1 %ID/g
same,tissue uptake at 4 h,"[1]; 10 pmol, Heart uptake",1.2 ± 0.3 %ID/g
same,tissue uptake at 24 h,"[1]; 10 pmol, Heart uptake",1.1 ± 0.2 %ID/g
same,tissue uptake at 24 h,"[1]; 10 pmol, Intestine uptake",2 ± 0.3 %ID/g
same,tissue uptake at 1 h,"[1]; 10 pmol, Kidney uptake",4.8 ± 0.5 %ID/g
same,tissue uptake at 4 h,"[1]; 10 pmol, Kidney uptake",3 ± 0.6 %ID/g
same,tissue uptake at 1 h,"[1]; 10 pmol, Liver uptake",6.1 ± 1.2 %ID/g
same,tissue uptake at 4 h,"[1]; 10 pmol, Liver uptake",5.2 ± 1.6 %ID/g
same,tissue uptake at 24 h,"[1]; 10 pmol, Liver uptake",4.6 ± 0.6 %ID/g
same,tissue uptake at 1 h,"[1]; 10 pmol, Lung uptake",9.8 ± 2.6 %ID/g
same,tissue uptake at 4 h,"[1]; 10 pmol, Lung uptake",5.4 ± 1.4 %ID/g
same,tissue uptake at 1 h,"[1]; 10 pmol, Muscle uptake",0.3 ± 0.1 %ID/g
same,tissue uptake at 4 h,"[1]; 10 pmol, Muscle uptake",0.2 ± 0.03 %ID/g
same,tissue uptake at 24 h,"[1]; 10 pmol, Muscle uptake",0.3 ± 0.1 %ID/g
same,tissue uptake at 1 h,"[1]; 10 pmol, Pancreas uptake",24.6 ± 2.4 %ID/g
same,tissue uptake at 4 h,"[1]; 10 pmol, Pancreas uptake",4.4 ± 1 %ID/g
same,tissue uptake at 24 h,"[1]; 10 pmol, Pancreas uptake",0.95 ± 0.1 %ID/g
same,tissue uptake at 4 h,"[1]; 10 pmol, Spleen uptake",1.1 ± 0.4 %ID/g
same,tissue uptake at 24 h,"[1]; 10 pmol, Spleen uptake",1.2 ± 0.1 %ID/g
same,tissue uptake at 1 h,"[1]; 10 pmol, Stomach uptake",16.1 ± 1.7 %ID/g
same,tissue uptake at 4 h,"[1]; 10 pmol, Stomach uptake",10.6 ± 1.6 %ID/g
same,tissue uptake at 24 h,"[1]; 10 pmol, Stomach uptake",3.1 ± 0.3 %ID/g
same,tissue uptake at 1 h,"[1]; 10 pmol, Tumor uptake",20.3 ± 2.5 %ID/g
same,tissue uptake at 4 h,"[1]; 10 pmol, Tumor uptake",14.9 ± 1 %ID/g
"C[C@@H](O)[C@@H]1NC(=O)[C@H](CCCCN)NC(=O)[C@@H](Cc2ccc(NC(N)=O)cc2)NC(=O)[C@H](Cc2ccc(NC(=O)[C@@H]3CC(=O)NC(=O)N3)cc2)NC(=O)[C@H](NC(=O)[C@H](Cc2ccc(Cl)cc2)NC(=O)CC[C@H](C(=O)O)N2CCN(CC(=O)O)CCN(CC(=O)O)CC2)CSSC[C@@H](C(=O)N[C@H](Cc2ccc(O)cc2)C(N)=O)NC1=O [^64Cu-NODAGA-JR11, metal not drawn] (X1-[Phe(4-Cl)][dC][Phe(4-NH2)](Dihydroorotyl(S))[dPhe(4-NHCONH2)]KTC[dY]-NH2; disulfide 2-7)",tissue uptake at 1 h,"[1]; 10 pmol, Adrenal uptake",4.8 ± 0.8 %ID/g
same,tissue uptake at 4 h,"[1]; 10 pmol, Adrenal uptake",3.5 ± 0.9 %ID/g
same,tissue uptake at 24 h,"[1]; 10 pmol, Adrenal uptake",1.5 ± 0.6 %ID/g
same,tissue uptake at 1 h,"[1]; 10 pmol, Blood uptake",0.6 ± 0.2 %ID/g
same,tissue uptake at 4 h,"[1]; 10 pmol, Blood uptake",0.1 %ID/g
same,tissue uptake at 24 h,"[1]; 10 pmol, Blood uptake",0.1 %ID/g
same,tissue uptake at 1 h,"[1]; 10 pmol, Bone uptake",0.7 ± 0.2 %ID/g
same,tissue uptake at 4 h,"[1]; 10 pmol, Bone uptake",0.8 ± 0.2 %ID/g
same,tissue uptake at 24 h,"[1]; 10 pmol, Bone uptake",0.4 ± 0.2 %ID/g
same,tissue uptake at 1 h,"[1]; 10 pmol, Heart uptake",0.5 ± 0.1 %ID/g
same,tissue uptake at 4 h,"[1]; 10 pmol, Heart uptake",0.3 ± 0.1 %ID/g
same,tissue uptake at 24 h,"[1]; 10 pmol, Heart uptake",0.2 ± 0.1 %ID/g
same,tissue uptake at 1 h,"[1]; 10 pmol, Intestine uptake",0.9 ± 0.4 %ID/g
same,tissue uptake at 4 h,"[1]; 10 pmol, Intestine uptake",0.7 ± 0.1 %ID/g
same,tissue uptake at 24 h,"[1]; 10 pmol, Intestine uptake",0.4 %ID/g
same,tissue uptake at 1 h,"[1]; 10 pmol, Kidney uptake",10.3 ± 0.7 %ID/g
same,tissue uptake at 4 h,"[1]; 10 pmol, Kidney uptake",6.9 ± 0.9 %ID/g
same,tissue uptake at 24 h,"[1]; 10 pmol, Kidney uptake",2.2 ± 0.6 %ID/g
same,tissue uptake at 1 h,"[1]; 10 pmol, Liver uptake",1.7 ± 0.2 %ID/g
same,tissue uptake at 4 h,"[1]; 10 pmol, Liver uptake",0.7 ± 0.3 %ID/g
same,tissue uptake at 24 h,"[1]; 10 pmol, Liver uptake",0.3 ± 0.1 %ID/g
same,tissue uptake at 1 h,"[1]; 10 pmol, Lung uptake",3 ± 1 %ID/g
same,tissue uptake at 4 h,"[1]; 10 pmol, Lung uptake",0.8 ± 0.2 %ID/g
same,tissue uptake at 24 h,"[1]; 10 pmol, Lung uptake",0.5 ± 0.1 %ID/g
same,tissue uptake at 1 h,"[1]; 10 pmol, Muscle uptake",0.4 %ID/g
same,tissue uptake at 4 h,"[1]; 10 pmol, Muscle uptake",0.1 ± 0.1 %ID/g
same,tissue uptake at 24 h,"[1]; 10 pmol, Muscle uptake",0.04 %ID/g
same,tissue uptake at 1 h,"[1]; 10 pmol, Pancreas uptake",5.6 ± 0.6 %ID/g
same,tissue uptake at 4 h,"[1]; 10 pmol, Pancreas uptake",0.4 ± 0.1 %ID/g
same,tissue uptake at 24 h,"[1]; 10 pmol, Pancreas uptake",0.2 %ID/g
same,tissue uptake at 1 h,"[1]; 10 pmol, Spleen uptake",0.9 ± 0.2 %ID/g
same,tissue uptake at 4 h,"[1]; 10 pmol, Spleen uptake",1.2 ± 0.2 %ID/g
same,tissue uptake at 24 h,"[1]; 10 pmol, Spleen uptake",0.9 ± 0.1 %ID/g
same,tissue uptake at 1 h,"[1]; 10 pmol, Stomach uptake",4.9 ± 1.6 %ID/g
same,tissue uptake at 4 h,"[1]; 10 pmol, Stomach uptake",0.9 ± 0.2 %ID/g
same,tissue uptake at 24 h,"[1]; 10 pmol, Stomach uptake",0.4 %ID/g
same,tissue uptake at 1 h,"[1]; 10 pmol, Tumor uptake",20.6 ± 3.7 %ID/g
same,tissue uptake at 4 h,"[1]; 10 pmol, Tumor uptake",19 ± 3.1 %ID/g
same,tissue uptake at 24 h,"[1]; 10 pmol, Tumor uptake",7.7 ± 2.5 %ID/g
same,tissue uptake at 1 h,"[1]; 200 pmol, Adrenal uptake",2.1 ± 1.2 %ID/g
same,tissue uptake at 1 h,"[1]; 200 pmol, Blood uptake",0.5 ± 0.1 %ID/g
same,tissue uptake at 1 h,"[1]; 200 pmol, Bone uptake",0.5 ± 0.3 %ID/g
same,tissue uptake at 1 h,"[1]; 200 pmol, Heart uptake",0.3 ± 1 %ID/g
same,tissue uptake at 1 h,"[1]; 200 pmol, Intestine uptake",0.5 ± 0.1 %ID/g
same,tissue uptake at 1 h,"[1]; 200 pmol, Kidney uptake",10.6 ± 1.6 %ID/g
same,tissue uptake at 1 h,"[1]; 200 pmol, Liver uptake",1.6 ± 0.3 %ID/g
same,tissue uptake at 1 h,"[1]; 200 pmol, Lung uptake",0.4 ± 0.2 %ID/g
same,tissue uptake at 1 h,"[1]; 200 pmol, Muscle uptake",0.2 %ID/g
same,tissue uptake at 1 h,"[1]; 200 pmol, Pancreas uptake",1.7 ± 0.3 %ID/g
same,tissue uptake at 1 h,"[1]; 200 pmol, Spleen uptake",0.7 ± 0.1 %ID/g
same,tissue uptake at 1 h,"[1]; 200 pmol, Stomach uptake",1.7 ± 0.7 %ID/g
same,tissue uptake at 1 h,"[1]; 200 pmol, Tumor uptake",16.4 ± 0.7 %ID/g
same,tissue uptake at 1 h,"[1]; 1000 pmol, Adrenal uptake",1.4 ± 0.6 %ID/g
same,tissue uptake at 1 h,"[1]; 1000 pmol, Blood uptake",0.4 ± 0.1 %ID/g
same,tissue uptake at 1 h,"[1]; 1000 pmol, Bone uptake",0.8 ± 0.4 %ID/g
same,tissue uptake at 1 h,"[1]; 1000 pmol, Heart uptake",0.3 ± 0.1 %ID/g
same,tissue uptake at 1 h,"[1]; 1000 pmol, Intestine uptake",0.3 ± 0.1 %ID/g
same,tissue uptake at 1 h,"[1]; 1000 pmol, Kidney uptake",7.9 ± 0.4 %ID/g
same,tissue uptake at 1 h,"[1]; 1000 pmol, Liver uptake",1 ± 0.2 %ID/g
same,tissue uptake at 1 h,"[1]; 1000 pmol, Lung uptake",0.3 ± 0.1 %ID/g
same,tissue uptake at 1 h,"[1]; 1000 pmol, Muscle uptake",0.3 ± 0.2 %ID/g
same,tissue uptake at 1 h,"[1]; 1000 pmol, Pancreas uptake",0.8 ± 0.2 %ID/g
same,tissue uptake at 1 h,"[1]; 1000 pmol, Spleen uptake",0.5 ± 0.1 %ID/g
same,tissue uptake at 1 h,"[1]; 1000 pmol, Stomach uptake",0.9 ± 0.2 %ID/g
same,tissue uptake at 1 h,"[1]; 1000 pmol, Tumor uptake",9.7 ± 2.4 %ID/g
same,tissue uptake at 1 h,"[1]; 2000 pmol, Adrenal uptake",1.9 ± 0.7 %ID/g
same,tissue uptake at 1 h,"[1]; 2000 pmol, Blood uptake",0.3 ± 0.1 %ID/g
same,tissue uptake at 1 h,"[1]; 2000 pmol, Bone uptake",0.2 %ID/g
same,tissue uptake at 1 h,"[1]; 2000 pmol, Heart uptake",0.2 ± 0.1 %ID/g
same,tissue uptake at 1 h,"[1]; 2000 pmol, Intestine uptake",0.4 ± 0.1 %ID/g
same,tissue uptake at 1 h,"[1]; 2000 pmol, Kidney uptake",8.1 ± 0.7 %ID/g
same,tissue uptake at 1 h,"[1]; 2000 pmol, Liver uptake",0.8 ± 0.1 %ID/g
same,tissue uptake at 1 h,"[1]; 2000 pmol, Lung uptake",0.3 %ID/g
same,tissue uptake at 1 h,"[1]; 2000 pmol, Muscle uptake",0.2 %ID/g
same,tissue uptake at 1 h,"[1]; 2000 pmol, Pancreas uptake",0.6 ± 0.1 %ID/g
same,tissue uptake at 1 h,"[1]; 2000 pmol, Spleen uptake",0.6 ± 0.1 %ID/g
same,tissue uptake at 1 h,"[1]; 2000 pmol, Stomach uptake",0.8 ± 0.1 %ID/g
same,tissue uptake at 1 h,"[1]; 2000 pmol, Tumor uptake",9.2 ± 0.4 %ID/g
same,Kd,[2],5.7 ± 0.95 nM
